Source: paper PMC5344419, “The structure of FKBP38 in complex with the MEEVD tetratricopeptide binding-motif of Hsp90” (PLoS ONE, 2017)
“Also recorded” adds a separate entry of the source.

B1: FKBP8: immunophilin with N-terminal glutamate rich region, PPIase domain and tetratricopeptide domain; construct not specified at the place (protein)
chain: MASCAEPSEPSAPLPAGVPPLEDFEVLDGVEDAEGEEEEEEEEEEEDDLSELPPLEDMGQPPAEEAEQPGALAREFLAAMEPEPAPAPAPEEWLDILGNGLLRKKTLVPGPPGSSRPVKGQVVTVHLQTSLENGTRVQEEPELVFTLGDCDVIQALDLSVPLMDVGETAMVTADSKYCYGPQGRSPYIPPHAALCLEVTLKTAVDGPDLEMLTGQERVALANRKRECGNAHYQRADFVLAANSYDLAIKAITSSAKVDMTFEEEAQLLQLKVKCLNNLAASQLKLDHYRAALRSCSLVLEHQPDNIKALFRKGKVLAQQGEYSEAIPILRAALKLEPSNKTIHAELSKLVKKHAAQRSTETALYRKMLGNPSRLPAKCPG
modifications: left off: His6, C-terminal, kept
notes: immunophilin with N-terminal glutamate rich region, PPIase domain and tetratricopeptide domain; construct not specified at the place
B2: FKBP^92-380: fragment containing both the immunophilin and TPR domain (protein)
chain: EWLDILGNGLLRKKTLVPGPPGSSRPVKGQVVTVHLQTSLENGTRVQEEPELVFTLGDCDVIQALDLSVPLMDVGETAMVTADSKYCYGPQGRSPYIPPHAALCLEVTLKTAVDGPDLEMLTGQERVALANRKRECGNAHYQRADFVLAANSYDLAIKAITSSAKVDMTFEEEAQLLQLKVKCLNNLAASQLKLDHYRAALRSCSLVLEHQPDNIKALFRKGKVLAQQGEYSEAIPILRAALKLEPSNKTIHAELSKLVKKHAAQRSTETALYRKMLGNPSRLPAKCPG
modifications: left off: His6 (from the vector pDMXV4), C-terminal, kept
notes: fragment containing both the immunophilin and TPR domain

Test system: yeast Hsp90
Test: ATPase activity of yeast Hsp90
Assay type: biochemical
Settings: ATPase assay, 5-molar excess of FKBP^92-380 over Hsp90 (Fig 7)

Molecule	effect on ATPase activity of Hsp90
B1	did not substantially influence; also recorded: did not show any substantial effect
B2	did not substantially alter
